Experimental data reported in patent US20250236680A1 (XI AN ORIMAB BIOTECHNOLOGY, published 2025).

Experiments:
PSMA on PSMA+CHO cells = PSMA on PSMA+CHO cells (UniProt Q04609 1-750, limits assumed); assay: cell-based or functional assay
[1] = biological target: T1, biotinylated PSMA extracellular domain recombinant protein (Acrobiosystems) (Homo sapiens (Human), UniProt Q04609 44-750, biotinylated); assay: capture ELISA, curve fit in GraphPad Prism
T1 construct: Bought reagent
Experimental: (§1) Goat anti-human-IgG1 (Fc specific) (Jackson ImmunoResearch Laboratories, Inc, Pennsylvania, USA) was coated on wells of ELISA plate in 100 μl PBS at the concentration of 3 μg/ml, 4° C. overnight. The wells were washed twice with 200 μl PBST (PBS, pH7.4, containing 0.05% Tween 20) and then blocked with 400 μl PBS™ (PBST containing 5% dry milk) for 2 h at room temperature. Three-fold serially diluted PSMAb and PSMAbLm starting from 6 nM down to 0.1 pM in 50 μl PBS™ were then incubated with the wells respectively for 1 h at room temperature. After 6 washes with PBST, the wells were incubated with 50 μl biotinylated PSMA extracellular domain recombinant protein (Acrobiosystems, Delaware, USA) at the concentration of 0.5 μg/ml in PBS™ for 1 h at room temperature. After incubation, the wells were washed 6 times using PBST and incubated with 50 μl 1:1000 diluted streptavidin-HRP (BD bioscience, California, USA) in PBS™. After final 6 washes with PBST, colorimetric signals were developed by incubation with 70 μl 3, 3′, 5, 5′-tetramethylbenzidine (TMB, eBioscience, CA, USA) and for 20 min at room temperature, then stopped by incubation with 70 μl 1 M H₂SO₄. The absorbance was measured at 450 nm using a microplate reader (VWR, PA, USA). The binding curves were analyzed using GraphPad Prism 5.0 software.
(§2) CDR3 regions of both heavy and light chains are pivotal for antigen binding. […]

[2] = biological target: T1, biotinylated PSMA extracellular domain …; assay: capture ELISA
Experimental: as §1, §2

T1 sequence (Q04609 44-750): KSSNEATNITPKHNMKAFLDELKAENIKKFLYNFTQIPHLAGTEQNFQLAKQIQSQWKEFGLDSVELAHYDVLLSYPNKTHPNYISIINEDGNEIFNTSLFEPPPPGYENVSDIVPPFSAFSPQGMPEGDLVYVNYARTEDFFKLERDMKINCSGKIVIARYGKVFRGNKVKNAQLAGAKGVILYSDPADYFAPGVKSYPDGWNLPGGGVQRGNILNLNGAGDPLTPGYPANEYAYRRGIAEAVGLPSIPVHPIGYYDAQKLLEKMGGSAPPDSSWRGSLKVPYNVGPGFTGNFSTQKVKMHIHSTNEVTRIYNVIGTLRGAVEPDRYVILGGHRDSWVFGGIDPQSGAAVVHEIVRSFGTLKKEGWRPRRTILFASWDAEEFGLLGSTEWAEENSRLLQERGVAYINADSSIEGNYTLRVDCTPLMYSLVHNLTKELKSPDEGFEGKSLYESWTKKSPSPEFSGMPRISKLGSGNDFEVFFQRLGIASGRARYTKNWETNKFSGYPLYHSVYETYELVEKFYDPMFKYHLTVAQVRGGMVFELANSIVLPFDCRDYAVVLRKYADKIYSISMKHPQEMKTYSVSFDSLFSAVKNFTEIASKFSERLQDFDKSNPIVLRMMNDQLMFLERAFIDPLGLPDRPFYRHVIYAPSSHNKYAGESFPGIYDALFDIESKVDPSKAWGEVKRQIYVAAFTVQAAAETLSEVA
PSMA on PSMA+CHO cells, sequence (Q04609 whole entry, the tested form may be a part): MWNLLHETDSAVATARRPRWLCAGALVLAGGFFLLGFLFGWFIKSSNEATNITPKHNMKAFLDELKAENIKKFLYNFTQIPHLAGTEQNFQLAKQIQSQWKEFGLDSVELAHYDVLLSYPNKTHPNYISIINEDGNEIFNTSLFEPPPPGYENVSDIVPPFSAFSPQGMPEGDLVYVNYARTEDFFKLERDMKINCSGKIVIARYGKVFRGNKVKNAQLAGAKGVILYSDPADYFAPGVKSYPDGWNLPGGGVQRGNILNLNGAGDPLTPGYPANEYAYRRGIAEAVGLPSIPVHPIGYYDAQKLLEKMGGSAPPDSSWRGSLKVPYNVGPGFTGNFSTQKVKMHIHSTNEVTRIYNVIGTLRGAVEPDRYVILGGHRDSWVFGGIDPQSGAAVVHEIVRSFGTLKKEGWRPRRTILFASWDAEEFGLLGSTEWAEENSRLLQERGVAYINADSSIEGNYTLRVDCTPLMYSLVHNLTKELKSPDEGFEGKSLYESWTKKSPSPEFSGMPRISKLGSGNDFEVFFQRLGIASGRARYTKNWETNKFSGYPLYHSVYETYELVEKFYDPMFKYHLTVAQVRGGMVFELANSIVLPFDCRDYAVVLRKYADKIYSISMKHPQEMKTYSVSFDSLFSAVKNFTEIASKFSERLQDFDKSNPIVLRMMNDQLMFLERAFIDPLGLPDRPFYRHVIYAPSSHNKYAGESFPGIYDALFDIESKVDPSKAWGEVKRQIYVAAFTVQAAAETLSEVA

Binder | Luciferase signal increase fold (ADCC, CD16-Jurkat reporter cells) at 0 pg/ml antibody (PSMA on PSMA+CHO cells) | Luciferase signal increase fold (ADCC, CD16-Jurkat reporter cells) at 2.286 pg/ml antibody (PSMA on PSMA+CHO cells) | Luciferase signal increase fold (ADCC, CD16-Jurkat reporter cells) at 6.859 pg/ml antibody (PSMA on PSMA+CHO cells) | Luciferase signal increase fold (ADCC, CD16-Jurkat reporter cells) at 20.576 pg/ml antibody (PSMA on PSMA+CHO cells) | Kd [1] | fold higher affinity than PSMAb [2]
PSMAb (parent anti-PSMA full antibody) (antibody, human IgG1, lambda, V domains shown, IgG1 with lambda constant region; also called PSMAb-WT; PMSAb-WT) VH: EVQLVESGGALAKPGGSLRLSCAASGFTLSGYAMHWVRQAPGKGLEWVAVISYDGSNKYYADSVKGRFTVSRDNSKNTLFLQMNSLRPEDTAVYYCAKGLTWGLGDNDALDIWGPGTTVTVSS VL: QSVLTQPPSVSGAPGQSVIISCTGSSSNIGAGSHVHWYQQVPGTAPKLLIYENTNRPSGVPDRFSGSKSGTSGSLAITGLQPEDEADYYCATWDDSLNGVIFGGGTKATVLG | 1.04 fold | 18.4 fold | 30 fold | 43.1 fold | 0.109 nM | 
PSMAb-AF (afucosylated PSMAb) (antibody, human IgG1, lambda, V domains shown, afucosylated (expressed in Fut8-/- CHO-K1)) VH: EVQLVESGGALAKPGGSLRLSCAASGFTLSGYAMHWVRQAPGKGLEWVAVISYDGSNKYYADSVKGRFTVSRDNSKNTLFLQMNSLRPEDTAVYYCAKGLTWGLGDNDALDIWGPGTTVTVSS VL: QSVLTQPPSVSGAPGQSVIISCTGSSSNIGAGSHVHWYQQVPGTAPKLLIYENTNRPSGVPDRFSGSKSGTSGSLAITGLQPEDEADYYCATWDDSLNGVIFGGGTKATVLG | 0.859 fold | 33 fold | 52.9 fold | 55.5 fold |  | 
PSMAbLm-AF (afucosylated PSMAb with N=>S mutation in light chain CDR3 region) (antibody, human IgG1, lambda, V domains shown, afucosylated (expressed in Fut8-/- CHO-K1)) VH: EVQLVESGGALAKPGGSLRLSCAASGFTLSGYAMHWVRQAPGKGLEWVAVISYDGSNKYYADSVKGRFTVSRDNSKNTLFLQMNSLRPEDTAVYYCAKGLTWGLGDNDALDIWGPGTTVTVSS VL: QSVLTQPPSVSGAPGQSVIISCTGSSSNIGAGSHVHWYQQVPGTAPKLLIYENTNRPSGVPDRFSGSKSGTSGSLAITGLQPEDEADYYCATWDDSLSGVIFGGGTKATVLG | 1.1 fold | 38.9 fold | 56.6 fold | 54.7 fold |  | 
PSMAbLm (PSMAb with N to S mutation in light chain CDR3) (antibody, human IgG1, lambda, V domains shown, also called PMSAbLm; full antibody from Mut-gy1-2 scFv) VH: EVQLVESGGALAKPGGSLRLSCAASGFTLSGYAMHWVRQAPGKGLEWVAVISYDGSNKYYADSVKGRFTVSRDNSKNTLFLQMNSLRPEDTAVYYCAKGLTWGLGDNDALDIWGPGTTVTVSS VL: QSVLTQPPSVSGAPGQSVIISCTGSSSNIGAGSHVHWYQQVPGTAPKLLIYENTNRPSGVPDRFSGSKSGTSGSLAITGLQPEDEADYYCATWDDSLSGVIFGGGTKATVLG |  |  |  |  | 0.0479 nM | ~2.3 fold
